14 molecules from patent US12460006B2, “Antibodies against integrin alpha 11 beta 1” (Momenta Pharmaceuticals, Inc., priority 2019, dated 2025) can be followed below.

B1: 40G10H11: rat anti-α11β1 mAb; VH SEQ ID NO: 157, VL SEQ ID NO: 158 (antibody, V domains shown)
VH: MDIRLSLGFLVLFIKGDQCAVQLVESGGGLVQPGRSLKLSCAASRITFTDYYMAWVRQAPTKGLEWVATISSDGGDTFYRDSVKGRFTISRDNAKSTLYLQMVSLRSEDTATYYCSTDRGAQFGYWGQGTLVTVSS
VL: MAPVQLLGLLLIWLPAMRCDIQMTQSPSFLSASVGDRVSINCKASQNVHENLNWYQQKLGEAPKRLIYNTNNLQTGIPSRFSGSGSGADYTLTISSLQPEDFATYFCLQHNAFPYTFGPGTKLELK
B2: 8-J17: mouse anti-α11β1 mAb; VH SEQ ID NO: 113, VL SEQ ID NO: 114 (antibody, V domains shown)
VH: QVQLQQSGAELAKPGASVKMSCKASGYTFTNYWMHWVKQRPGQGLEWIGYINPNNGYTEYNQRFKDKATLTADRSSTTAYMQLSSLTSEDSAVYYCARSDIITTDYWGQGTTLTVSS
VL: DVVMTQTPLSLPVSLGDQASISCRSSQSLVYSNGNTYLHWYLQKPGQSPKLLIYKVSNRFSGVPDRFSGSGSGTDFTLKISRVEAEDLGVYFCSQSTHVPWTFGGGTKLEIK
B3: 6-M8: mouse anti-α11β1 mAb; VH SEQ ID NO: 129, VL SEQ ID NO: 130 (antibody, V domains shown)
VH: QVQLQQPGAELVMPGASVKLSCKASGYTFTNYWMHWVKQRPGQGLEWIGEIDPSDSYTNYNQKFKGKATLTVDKSSSTAYMQLSSLTSEDSAVYYCTRQGSTYAWGQGTSVTVSS
VL: DIVMTQAAFSNPVTLGTSASISCRSSKSLLHSNGITYLYWYLQKPGQSPQLLIYQMSNLASGVPDRFSSSGSGTDFTLRISRVEAEDVGVYYCAQNLELPPTFGGGTKLEIK
B4: 6-O12: mouse anti-α11β1 mAb; VH SEQ ID NO: 117, VL SEQ ID NO: 118 (antibody, V domains shown)
VH: EVKLEESGGGLVQPGGSMKLSCAASGFTFSDAWMDWVRQSPEAGLEWVAEIRNKAHNPATYYAESVKGRFTISRDDSKSSVYLQMNSLRAEDTGIYYCTLVAPDAMDYWGQGTSVTVSS
VL: DIVMSLSPSSLAVSVGEKVTMSCKSSQSLLYSRNQKNYLAWYQQKPGQSPKLLIYWASTRASGVPDRFTGSGSGTDFTLTISSVKAEDLAVYYCQQYYSYPYTFGGGTKLEIK
B5: 18E10F10: rat anti-α11β1 mAb; VH SEQ ID NO: 155, VL SEQ ID NO: 156 (antibody, V domains shown)
VH: MDIRLSLVFLVLFMKGVQCEVQLVESGGGLVQPGRSLKLSCAASRFTFSDYNMAWVRQAPKKGLEWVATIYHDDSGSYYRDSVKGRFTISRNNAKSTLYLQMDSLRSEDMATYYCARHNNGFDYWGQGVMVTVAS
VL: MKWPVRLLVLFFWIPASGGDVVMTQTPVSLPVRLGGQASISCRSSQSLVHSNGNTYLHWYLQKPGQSPQLLINRVSNRFSGVPDRFSGSGSGTDFTLKINRVEPEDLGDYYCLQSTHFPLTFGSGTKLETK
B6: 3-G5: mouse anti-α11β1 mAb; VH SEQ ID NO: 135, VL SEQ ID NO: 136 (antibody, V domains shown)
VH: QVQLQQSGAELARPGASVKLSCKASGYTFTSYGISWVKQRTGQGLEWIGEIFPRSSNTYYNEKFKGKATLTADKSSSTVYMEFRSLTSEDSAVYFCAREGGLAWFAYWGQGTLVTVSA
VL: DVVMTQTPLTLSVTIGQPASISCKSSQSLLYTNGNTYLNWLLQRPGQSPKRLIYLVSKLDSGIPDRFSGSGSGTDFTLRISRVEAEDLGVYYCLQSTHFPFTFGSGTKLEIK
B7: 7-H14: mouse anti-α11β1 mAb; VH SEQ ID NO: 121, VL SEQ ID NO: 122 (antibody, V domains shown)
VH: QVQLQQPGAELVRPGASVKLSCKPSGYTFTSYWMNWVKQRPGQGLEWIGMIDPSDSETHYNQMFKDKATLTVDKSSNTAYMQLSSLTSEDSAVYYCAQIYYAYDKAYWGQGTLVTVSA
VL: DIVMSQSPSSLAVSVGEKVTMSCKSSQSLLYSSHQKNYLAWYQQKPGQSPKLLIYWASTRESGVPDRFTGSGSGTDFSLTISSVKAEDLAVYYCQEYYSWTFGGGTKLEIK
B8: 8H8E9: rat anti-α11β1 mAb; VH SEQ ID NO: 149, VL SEQ ID NO: 150 (antibody, V domains shown)
VH: MAVLVLLLCLVTFPSCALSQVQLKESGPGLVQPSQTLSLTCTVSGFSLTSNSVSWVRQAPGKGLEWMGAIWSGGSTDYNSALKSRLSISRDTSKSQVFLKMNSLQTEDTAIYFCTRSHWEPFDYWGQGVMVTVSS
VL: MESQTQALISLLLWVYGTCGDIVMTQSPFSLAVSEGEMVTINCKSSQGLLSSGNQKNYLAWYQQRPGQSPKLLIYYASTRQSGVPDRFIGGGSGTDFTLTISDVQAEDLADYYCLQHYSYPPTFGSGTKLEIK
B9: 6E5C11: rat anti-α11β1 mAb; VH SEQ ID NO: 151, VL SEQ ID NO: 152 (antibody, V domains shown)
VH: B8 VH with K24R, S54T, A59P, G73D, A81T, N102S
VL: B8 VL with F29L, M38T, I41M, G48S, L50F, R65K, G91S, A106T, S119N
B10: 7D8B10: rat anti-α11β1 mAb; VH SEQ ID NO: 153, VL SEQ ID NO: 154 (antibody, V domains shown)
VH: MDLRLTYVFIVAILKGVLCEVKLEESGGGLVQPGMSVKLSCATSGFIFSDYWMEWVRQAPGKGLEWVAEIRNKANNYATYYGKSMKGRFTISRDDSKSIVYLQVNSIRSEDTAIYYCAPNFDYWGQGVMVTVSS
VL: MSPVQSLFLLLLWILGTHGDVVLTQTPPTLSATIGQSVSISCRSSQSLLHSTGNTYLNWLLQRPGQPPQLLIYLVSRLESGVPNRFSASGSGTDFTLKISGIEAEDLGVYYCVQSSHTPYTFGTGTKLELK
B11: 8-P20: mouse anti-α11β1 mAb; VH SEQ ID NO: 105, VL SEQ ID NO: 106 (antibody, V domains shown)
VH: KVMLVESGGALVKPGGSLKLSCVASGFTFSNYAMSWVRQTPEKRLEWVATISSGGYYTYYPDSVKGRFTISRDNARNTLFLQMSSLRSEDTAMFYCAREDDYGRYSYTMDYWGQGTSVTVSS
VL: B2 VL with A19V, S25C, Y31H, K50Q, V56I, W101Y, K108E
B12: 10-F23: mouse anti-α11β1 mAb; VH SEQ ID NO: 125, VL SEQ ID NO: 126 (antibody, V domains shown)
VH: QVTLKESGPGILQPSQTLSLTCSFSGFSLSTFAMGVGWIRQPSGKGLEWLAHIWWDDDKYYNPALKSRLTISKDTSKNHVFLKIANVDTADTATYYCARMPLTFYFDYWGQGTTLTVSS
VL: DVLLTQTPLSLPVSLGDQASISCRSSQSIVHSNGHTYLEWYLQKPGQSPKLLIYKVSNRFSGVPDRFSGSGSGTDFTLKISRVEAEDLGVYYCFQGSHVPFTFGGGTKLEIK
B13: 6-A12: mouse anti-α11β1 mAb; VH SEQ ID NO: 127, VL SEQ ID NO: 128 (antibody, V domains shown)
VH: B12 VH with S30R, H79Q
VL: B12 VL with L4M, H35N, N58T
B14: 6-B21: mouse anti-α11β1 mAb; VH SEQ ID NO: 123, VL SEQ ID NO: 124 (antibody, V domains shown)
VH: EVQLQQSGPELVKPGASVKISCKASGYTFTDYYMNWVKQSHGKSLEWIGDINPHNGGTSFIQKFKGKATLTVDKSSSTAYMELRSLTSEDSAVYYCAPLGRKEGFAYWGQGTLVTVSA
VL: DTVLTQSPASLVVSLGQRATISCRASKSVSTSGYSYMHWYQQKPGQPPKLLIYLASNLESGVPARFSGSGSGTAFTLNIHPVEEEDAATYYCQHSRELPYTFGGGTKLEIK

Changes are numbered by the printed parent chain.

The subject of one test is Human Pulmonary Fibroblasts. Briefly: Fibroblast-to-Myofibroblasts Transition (FMT), αSMA expression. It is filed as cell-based. The note with it: TGFβ-induced FMT. How it is done: Human Pulmonary Fibroblasts (ScienCell) were cultured in complete Fibroblast Growth Medium (ScienCell) until 80% confluent. Cells were washed and harvested using Accutase. Cells were seeded onto tissue culture-treated 96 well plates at 20,000 cells/well in complete Fibroblast Growth Medium. After 24 hours, cells were washed and starved in serum reduced medium for an additional 24 hours. After starvation, cells were treated with TGFβ-1 (R&D Systems) with or without anti-α11 antibodies. A polyclonal rabbit anti-human α11 antibody was used as a positive control. Appropriate IgG isotype controls were also included. After 48 hours, cells were harvested, fixed, permeabilized and stained with AlexaFluor488 Labeled Anti-αSMA (α-smooth muscle actin) (Invitrogen). Cells were acquired on a FACS Verse (Benton Dickson) to determine expression levels of αSMA. Data were analyzed by gating on single cells and determining the geometric Mean Fluorescence Intensity (gMFI) in the FITC channel for each sample. gMFI for each sample was normalized to the untreated control and presented as % inhibition.
In addition to the binding abilities described above, it is important for an anti-α11β1 antibody to inhibit the fibroblast-to-myofibroblast transition (FMT). It is now appreciated that myofibroblasts are a heterogeneous cell population, existing in different activation states, with the main function of producing and contracting collagen extracellular matrix (ECM). FMT is a multi-step event that is controlled by a changing mechanical environment in tissues undergoing repair. TGFβ is one of the potent factors that potentiates this process and alpha smooth muscle actin (αSMA) is one of the main markers that becomes overexpressed when fibroblasts are undergoing the transition to becoming myofibroblasts. The presence of αSMA enhances fibroblast contraction and guides myofibroblast activation through an intracellular feedback loop. Because αSMA is the main molecular marker of myofibroblasts, the ability of the novel anti-α11β1 mAbs to inhibit αSMA expression in TGFβ-induced FMT was tested.
Take B1: the “inhibition of αSMA expression / FMT” value is “significantly inhibited αSMA expression”.
For the molecule B2, the “inhibition of αSMA expression / FMT” value is recorded as “only inhibited FMT”.

Staying with this test, now noted: Yes/No.
As to B1, the “Inhibition of FMT” value is “Yes”.
As to B3, the “Inhibition of FMT” value is given as “No”.
On the same count and under the same terms, next, B4: “No”.
On the same count and under the same terms, next, B5: “Yes”; B6: “No”.
In the case of B7, the “Inhibition of FMT” value is reported as “No”.
As to B8, the “Inhibition of FMT” value is listed as “Yes”.
Take B9: the “Inhibition of FMT” value is “Yes”.
On the same count and under the same terms, next, B10: “Yes”.
Take B11: the “Inhibition of FMT” value is given as “No”.
With B2, the “Inhibition of FMT” value was “Yes”.
Still for that read-out and setting: next, B12: “No”.
B13: the “Inhibition of FMT” value is listed as “No”.
Still for that read-out and setting: next, B14: “No”.
